The target of data set [1] is T1, I-CreI_D75N (UniProt P05725 1-163, D75N).
T1 sequence: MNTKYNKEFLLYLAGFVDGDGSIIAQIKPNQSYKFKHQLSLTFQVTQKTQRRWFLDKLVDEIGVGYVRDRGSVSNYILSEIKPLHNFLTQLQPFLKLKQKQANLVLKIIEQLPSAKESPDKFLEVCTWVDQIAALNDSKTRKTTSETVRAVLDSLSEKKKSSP
Put plainly: crystal structure; 2 mM Ca2+; MST at 25 C: 50 mM Tris pH 8.0 (I-CreI_3115; 2 or 10 mM CaCl2) or 50 mM Hepes pH 7.5 (I-CreI_D75N; 10 mM CaCl2), 300 mM NaCl, 0.5 mM TCEP, 0.05% Tween-20. The settings on record: protein: recombinant; chain copies: 2; blunt; self-annealed palindrome.

The target in data set [2] is T1, I-CreI_D75N. Put plainly: crystal structure; 2 mM Mg2+; uncleaved DNA; MST at 25 C: 50 mM Tris pH 8.0 (I-CreI_3115; 2 or 10 mM CaCl2) or 50 mM Hepes pH 7.5 (I-CreI_D75N; 10 mM CaCl2), 300 mM NaCl, 0.5 mM TCEP, 0.05% Tween-20. The settings on record: protein: recombinant; chain copies: 2; blunt.
The target of data set [3] is T2, I-CreI_3115 chain 1;I-CreI_3115 chain 2 (;, UniProt P05725;P05725 1-163;1-163, Y33G;Q38K;Q44K;R68Y;R70S;D75N;I77Y;I132V|G19S;Y33V;Q38R;S40Q;Q44D;R68A;R70S;D75K …).
T2 sequence 1: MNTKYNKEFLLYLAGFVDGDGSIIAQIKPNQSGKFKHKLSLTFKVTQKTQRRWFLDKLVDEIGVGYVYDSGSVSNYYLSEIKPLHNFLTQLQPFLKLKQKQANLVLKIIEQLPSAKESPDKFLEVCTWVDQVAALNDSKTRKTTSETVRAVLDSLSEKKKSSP
T2 sequence 2: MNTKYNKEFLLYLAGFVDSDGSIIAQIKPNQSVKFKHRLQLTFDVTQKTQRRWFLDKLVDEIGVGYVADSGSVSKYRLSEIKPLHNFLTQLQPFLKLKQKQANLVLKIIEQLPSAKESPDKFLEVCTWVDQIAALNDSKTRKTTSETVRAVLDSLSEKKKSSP
As to the kind of experiment: MST; 2 mM CaCl2; labelled DNA; MST at 25 C: 50 mM Tris pH 8.0 (I-CreI_3115; 2 or 10 mM CaCl2) or 50 mM Hepes pH 7.5 (I-CreI_D75N; 10 mM CaCl2), 300 mM NaCl, 0.5 mM TCEP, 0.05% Tween-20. The conditions noted are these: protein: recombinant;recombinant; tags: ;; copies: 1;1; label: Cy5 on coding strand (5'); blunt.

B1: I-CreI_D75N_target (dsDNA)
DNA 1: TCAAAACGTCGTACGACGTTTTGA
DNA 2: TCAAAACGTCGTACGACGTTTTGA
B1: in data set [1], the binding result is given as “binds”.

B2: I-CreI_D75N_target-null (dsDNA)
DNA 1: TCAAAACTGCGTACGACGTTTTGA
DNA 2: TCAAAACGTCGTACGCAGTTTTGA
Turning to B2, in data set [2], the binding result is “binds”.

B3: I-CreI_3115_target (Cy5) (dsDNA)
DNA 1: TCAGACTTCTCCACAGGAGTCAGA
DNA 2: TCTGACTCCTGTGGAGAAGTCTGA
With B3, the Kd in data set [3] stood at 90 nM.

By Kd is commonly meant the constant that tells how readily two partners part at equilibrium.
